Test results: article PMC5454392, “Selective BET bromodomain inhibition as an antifungal therapeutic strategy” (Nature Communications, 2017)
Read-outs that look alike come from different tables or passages of the source.

Assays:
[1] = target: T1, CaBdf1 BD2 Y425F (Candida albicans, UniProt Q5A4W8, Y425F); test: Histone peptide microarray binding, YF mutant;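 on CaBdf1 BD2 Normalized (0 to 100%) YF mutant: normalized to spotted c-myc peptide positive control signal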; design: species or system C. albicans; conditions: YF mutant BD2; for CaBdf1 BD2 Normalized (0 to 100%) YF mutant: normalized array signal; for CaBdf1 BD2 Raw data YF mutant: peptide array signal
T1 construct: made in house; host or cells: E. coli BL21(DE3), inferred from the wild-type GST construct
Method: (§1) In short, arrays were blocked and incubated with 1 μM of purified CaBdf1 BD1 or BD2. Arrays were incubated with recombinant BDs for 2 h at 4 °C in binding buffer (Tris-HCl 50 mM pH 7.4, NP-40 0.1%, NaCl 150 mM, glycerol 10%). […] Assays were performed in duplicate. Images were acquired on a Bio-Rad ChemiDoc XRS Imaging machine and data were quantified using the array analyser software provided by Active Motif.

[2] = target: T2, CaBdf1 BD1 Y248F (Candida albicans, UniProt Q5A4W8, Y248F); test: Histone peptide microarray binding, YF mutant;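 on CaBdf1 BD1 Normalized (0 to 100%) YF mutant: normalized to spotted c-myc peptide positive control signal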; design: species or system C. albicans; conditions: YF mutant BD1; for CaBdf1 BD1 Normalized (0 to 100%) YF mutant: normalized array signal; for CaBdf1 BD1 Raw data YF mutant: peptide array signal
T2 construct: made in house; host or cells: E. coli BL21(DE3), inferred from the wild-type GST construct
Method: as §1

[3] = target: T3, CaBdf1 BD1 (Candida albicans, UniProt Q5A4W8); type: binding; conditions: wild-type BD1; for CaBdf1 BD1 Normalized (0 to 100%) WT: normalized array signal; for CaBdf1 BD1 Raw data WT: peptide array signal;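 on CaBdf1 BD1 Normalized (0 to 100%) WT: normalized to spotted c-myc peptide positive control signal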
T3 construct: made in house; host or cells: E. coli BL21(DE3)
T3 sequence (Q5A4W8 whole entry, looked up): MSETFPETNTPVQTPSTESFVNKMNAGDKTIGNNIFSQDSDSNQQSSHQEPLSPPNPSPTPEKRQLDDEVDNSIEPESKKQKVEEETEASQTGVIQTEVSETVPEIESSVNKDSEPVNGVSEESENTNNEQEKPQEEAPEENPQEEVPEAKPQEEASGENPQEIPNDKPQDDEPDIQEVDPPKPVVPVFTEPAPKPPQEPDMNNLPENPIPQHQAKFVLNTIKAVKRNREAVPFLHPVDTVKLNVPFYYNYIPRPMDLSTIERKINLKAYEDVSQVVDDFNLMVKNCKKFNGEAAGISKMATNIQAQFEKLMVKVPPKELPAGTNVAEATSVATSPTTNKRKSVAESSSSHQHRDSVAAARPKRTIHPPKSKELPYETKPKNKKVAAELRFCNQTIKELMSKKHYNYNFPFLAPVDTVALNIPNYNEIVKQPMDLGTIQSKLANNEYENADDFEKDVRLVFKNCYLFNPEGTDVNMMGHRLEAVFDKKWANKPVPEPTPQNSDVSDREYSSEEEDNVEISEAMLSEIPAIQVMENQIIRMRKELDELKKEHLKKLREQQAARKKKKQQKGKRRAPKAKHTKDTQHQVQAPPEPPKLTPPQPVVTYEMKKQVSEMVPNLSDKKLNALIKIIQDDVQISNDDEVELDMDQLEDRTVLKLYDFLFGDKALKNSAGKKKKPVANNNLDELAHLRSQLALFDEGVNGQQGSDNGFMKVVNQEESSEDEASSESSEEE
Method: (§2) In short, arrays were blocked and incubated with 1 μM of purified CaBdf1 BD1 or BD2. Arrays were incubated with recombinant BDs for 2 h at 4 °C in binding buffer (Tris-HCl 50 mM pH 7.4, NP-40 0.1%, NaCl 150 mM, glycerol 10%). […] Assays were performed in duplicate.

[4] = target: T4, CaBdf1 BD2 (Candida albicans, UniProt Q5A4W8); type: binding; conditions: wild-type BD2; for CaBdf1 BD2 Normalized (0 to 100%) WT: normalized array signal; for CaBdf1 BD2 Raw data WT: peptide array signal;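 on CaBdf1 BD2 Normalized (0 to 100%) WT: normalized to spotted c-myc peptide positive control signal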
T4 construct: made in house; host or cells: E. coli BL21(DE3)
T4 sequence (Q5A4W8 whole entry, looked up): T3 sequence (Q5A4W8 whole entry, looked up)
Method: as §2

T1 sequence (Q5A4W8 361-501 Y425F): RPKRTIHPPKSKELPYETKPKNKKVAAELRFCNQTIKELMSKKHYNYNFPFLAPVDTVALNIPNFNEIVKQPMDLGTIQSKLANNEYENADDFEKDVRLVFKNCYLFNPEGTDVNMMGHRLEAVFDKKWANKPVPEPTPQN
T2 sequence (Q5A4W8 193-327 Y248F): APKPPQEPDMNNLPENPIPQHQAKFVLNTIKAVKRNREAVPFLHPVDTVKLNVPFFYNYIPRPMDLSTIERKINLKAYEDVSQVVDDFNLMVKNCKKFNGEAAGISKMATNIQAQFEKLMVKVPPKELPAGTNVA

Sequence | CaBdf1 BD2 Normalized (0 to 100%) YF mutant [1] | CaBdf1 BD2 Raw data YF mutant ([1]; first of two raw-data columns) | CaBdf1 BD2 Raw data YF mutant [1] | CaBdf1 BD1 Normalized (0 to 100%) YF mutant [2] | CaBdf1 BD1 Raw data YF mutant ([2]; first of two raw-data columns) | CaBdf1 BD1 Raw data YF mutant [2] | CaBdf1 BD1 Normalized (0 to 100%) WT [3] | CaBdf1 BD1 Raw data WT ([3]; first of two raw-data columns) | CaBdf1 BD1 Raw data WT [3] | CaBdf1 BD2 Normalized (0 to 100%) WT [4] | CaBdf1 BD2 Raw data WT ([4]; first of two raw-data columns) | CaBdf1 BD2 Raw data WT [4]
A Rme2a T Kme3 Q T A R Kac S T G G K A P R K Q | 0.244% | 0.002427 | 0.002427 | 0.554% | 0.005487 | 0.004801 | 3.44% | 0.01924 | 0.03528 | 0.518% | 0.006177 | 0.0151
A Rme2s T Kac Q T A Rme2s K S T G G K A P R K Q | 0.293% | – | 0.003398 | 0.485% | 0.004801 | 0.003086 | 0.363% | 0.003741 | 0.005345 | 0.518% | – | 0.01235
A Rme2a T Kme3 Q T A Rme2a K S T G G K A P R K Q | 0.293% | – | 0.002427 | 0.658% | 0.006516 | 0.004801 | 0.363% | 0.004276 | 0.00481 | 0.444% | 0.01098 | –
A Rme2s T Kme3 Q T A Rme2s K S T G G K A P R K Q | 0.244% | 0.002427 | 0.003398 | 0.346% | 0.003429 | 0.004115 | 0.29% | 0.003207 | 0.00481 | 0.444% | 0.008236 | 0.01167
A Rme2s T Kme2 Q T A Rme2s K S T G G K A P R K Q | 0.244% | 0.002427 | 0.004854 | 0.624% | 0.006173 | 0.003086 | 0.181% | 0.002672 | 0.003741 | 0.629% | 0.00755 | 0.01579
A Rme2s T Kme1 Q T A R Kme1 S T G G K A P R K Q | 0.342% | 0.003398 | – | 0.658% | 0.006516 | 0.005144 | 0.29% | 0.003741 | 0.004276 | 0.518% | 0.01579 | 0.005491
A Rme2a T Kme2 Q T A Rme2a K S T G G K A P R K Q | 0.293% | – | 0.002427 | 0.727% | 0.007202 | 0.003086 | 0.508% | 0.007483 | 0.003741 | 0.444% | – | 0.01098
